What was measured:
[1] = target: T1, PSMA (prostate-specific membrane antigen) extracellular domain (Homo sapiens, UniProt Q04609 SEQ:23-728); assay: filter; dot blot without tRNA; settings: hairpin with conserved 16-nt loop, A-rich asymmetric bulge
[2] = target: T1, PSMA (prostate-specific membrane …); assay: inhibition; NAALADase inhibition, 40 mM Tris pH 7.4, 0.1 mM ZnSO4, 37 C; settings: hairpin with conserved 16-nt loop, A-rich asymmetric bulge
[3] = target: T1, PSMA (prostate-specific membrane …); assay: filter; dot blot, 1x SHMCK pH 7.4 (1 mM Mg, Ca), room temp, no tRNA; settings: label: 32P 5'-end
[4] = target: T1, PSMA (prostate-specific membrane …); assay: FP filter; dot blot, nitrocellulose; max bound 33%
Description: (§1) Dot Blot Binding Analysis. Dot blot binding assays were performed throughout the selections to monitor the protein binding affinity of the pools. For initial pool screening, trace ³²P-labeled pool RNA was combined with PSMA and incubated at room temperature for 30 min in 1×SHMCK buffer pH 7.4 (20 mM Hepes pH 7.4, 120 mM NaCl, 5 mM KCl, 1 mM MgCl₂, […]) plus 0.1 mg/mL tRNA in a final volume of 30 μl. The mixture was applied to a dot blot apparatus (Schleicher and Schuell Minifold-1 Dot Blot, Acrylic, Keene, N.H.), assembled (from top to bottom) with nitrocellulose, nylon, and gel blot membranes. RNA that is bound to protein is captured on the nitrocellulose filter; whereas the non-protein bound RNA is captured on the nylon filter. […] The Round 9 pool was cloned and screened in a single point dot blot assay using 100 nM PSMA (0 nM PSMA was used as a negative control). Clone transcripts were 5′end labeled with ³²-P ATP. Likely binders were than assayed for KD determination by the blot assay conditions described directly above, but without tRNA, using an 8 point PSMA titration with a constant RNA concentration. […] Both of the clones screened were unique sequences in the Round 9 selection pool.
(§2) In order to identify the core structural elements required for ARC955 binding to PSMA, the 3′-boundaries of the clone was determined through alkaline hydrolysis.

[5] = target: T1, PSMA (prostate-specific membrane …); assay: filter; dot blot; max bound 22%
Description: as §1, §2

[6] = target: T1, PSMA (prostate-specific membrane …); assay: filter; no binding in dot blot
Description: as §1, §2

[7] = target: T1, PSMA (prostate-specific membrane …); assay: filter; dot blot; max bound 52%
Description: as §1, §2

T1 sequence (Q04609 45-750): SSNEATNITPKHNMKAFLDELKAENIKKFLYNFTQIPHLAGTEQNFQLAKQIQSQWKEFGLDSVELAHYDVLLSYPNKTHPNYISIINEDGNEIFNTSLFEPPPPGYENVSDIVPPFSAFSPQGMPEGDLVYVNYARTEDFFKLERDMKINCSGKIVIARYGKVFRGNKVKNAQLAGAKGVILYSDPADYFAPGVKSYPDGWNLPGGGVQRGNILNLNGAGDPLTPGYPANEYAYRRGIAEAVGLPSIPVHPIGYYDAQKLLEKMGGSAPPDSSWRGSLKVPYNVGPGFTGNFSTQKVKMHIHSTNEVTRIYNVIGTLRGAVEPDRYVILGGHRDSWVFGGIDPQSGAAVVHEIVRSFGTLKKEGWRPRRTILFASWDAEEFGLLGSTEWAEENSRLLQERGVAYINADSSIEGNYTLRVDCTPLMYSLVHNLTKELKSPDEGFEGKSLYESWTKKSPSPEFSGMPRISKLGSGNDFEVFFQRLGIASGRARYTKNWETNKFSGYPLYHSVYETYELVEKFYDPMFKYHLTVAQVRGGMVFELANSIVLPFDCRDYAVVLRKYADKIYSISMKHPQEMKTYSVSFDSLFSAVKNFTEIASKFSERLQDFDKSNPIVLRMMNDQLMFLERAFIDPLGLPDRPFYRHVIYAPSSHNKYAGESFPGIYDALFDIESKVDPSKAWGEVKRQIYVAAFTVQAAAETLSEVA

B1: ARC591 (ssRNA)
RNA: GGAGGACCGAAAAAGACCUGACUUCUAUACUAAGUCUACGUUCCUCCA
modifications: 2'-F C and U; 2'-OH A and G
Kd [1]: 3.4 nM
IC50 [2]: 6.7 nM

B2: ARC956 (G8) (ssRNA)
RNA: GGGGAGAGGAGAGAACGUUCUACACAUGGGUCGGGUGAGUGGCAAAGGAAUAGGUCGAUCGAUCGAUCAUCGAUG
modifications: 2'-OMe A, C, U; 2'-OH G (rGmH)
Kd [3]: 16 nM

B3: ARC1088 (ssRNA)
RNA: GGGUGGCUGGGAGGGGAAGAGGG
modifications: 2'-OMe A, C, U; 2'-OH G (rGmH)
Kd [4]: 2.1 nM

B4: ARC1089 (ssRNA)
RNA: CUACUGGGUGGCUGGGAGGGGAAGAGGGAGUAG
modifications: 2'-OMe A, C, U; 2'-OH G (rGmH)
Kd [5]: 9.3 nM

B5: ARC955 (G2) (ssRNA)
RNA: GGGAGAGGAGAGAACGUUCUACUAUGGGUGGCUGGGAGGGGAAGAGGGAGUAGGUCGAUCGAUCGAUCAUCGAUG
modifications: 2'-OMe A, C, U; 2'-OH G (rGmH)
Kd [3]: 9 nM

B6: ARC725 (ssRNA)
RNA: CUACUACACAUGGGUCGGGUGAGUGGCAAAGGAAUAGUAG
modifications: 2'-OMe A, C, U; 2'-OH G (rGmH)
binding result [6]: no binding

B7: ARC1091 (ssRNA)
RNA: AGAGGAGAGAACGUUCUACUAUGGGUGGCUGGGAGGGG
modifications: 2'-OMe A, C, U; 2'-OH G (rGmH)
Kd [7]: 3.1 nM

Source: US20070041901, “Stabilized aptamers to PSMA and their use as prostate cancer therapeutics” (published 2007)
